Measured values reported in patent US12286461B2, “Recombinant fused polypeptide and use thereof” (priority 2019, dated 2025).

Experiments:
[1] = system: SD rats with bleomycin-induced pulmonary fibrosis; experiment: Bleomycin-induced pulmonary fibrosis animal model; format: in vivo; settings: for Survival rate (%): bleomycin 5 mg/kg intratracheal, dosage 10 mg/kg (Table 2), administration cycle 15 days from day 7 after modeling; for content of TGF-β1 in serum, difference from the model group: fused polypeptides 10 mg/kg s.c. once every five days, nintedanib 25 mg/kg intragastric once a day
Method: SD rats were anesthetized by intraperitoneal injection of 4% chloral hydrate with a concentration of 1 mL/100 g. After anesthesia, the rats were fixed and their necks were disinfected by using cotton with 75% alcohol. The skin of the rat neck was longitudinally cut with scissors, and the fascia and muscle were longitudinally bluntly torn with tweezers to expose the trachea. A syringe was inserted into the trachea to inject 5 mg/kg bleomycin, while a blank group was injected with an equal amount of normal saline. Then a rat plate was quickly erected and rotated, the rats' breathing was observed, the neck wound was sterilized after rotation and was sewn, and an amoxicillin anti-inflammatory drug was sprinkled on the suture. After the operation, the rats were put back into a dry and clean cage for resting, waiting for awakening. The rats were awakened after about 1-2 hours, and then fed normally. On the 7th day after modeling, modeling group animals randomly fell into a model group, a Nintedanib positive drug group, recombinant fused polypeptide 1, 2, 3 and 4 dosage groups, and a normal control group, and the groups were administered separately for an administration cycle of 15 days. Living situations of rats were observed every day and their weights were weighed. After administration for 15 days, the eyeballs were removed and blood was taken, the rats were dissected, and lungs were taken. The content of TGF-β1 in serum and the content of HYP in lung tissues were detected.

[2] = system: SD rats with CCl4-induced hepatic fibrosis; experiment: CCl4-induced hepatic fibrosis animal model; format: in vivo; settings: 40% CCl4 i.p. twice a week for 8 weeks, fused polypeptides 6 mg/kg s.c. once every five days
Method: Modeling was performed on the rats. Each group other than the blank group was injected with 40% CCl4 intraperitoneally twice a week, the first injection was performed at 3 mL/kg, and then injection was performed at 2 mL/kg. Modeling was performed for 8 weeks to induce hepatic fibrosis. After the intraperitoneal injection of CCl4 for the fourth time, the drugs were administered according to Table 3. After induction for 8 weeks, the administration was stopped. The SD rats were dissected the next day, and blood was taken. The liver tissue was stored in a refrigerator at −80° C. for further use. The expression of HYP in the hepatic tissue of rats was detected. [table]

pulmonary infections = experiment: Mouse pneumonia model, pneumonia caused by pulmonary infections; format: in vivo, BALB/C mice; settings: BALB/C mouse pneumonia model, nasal drip, average ± standard deviation
Excerpt: (§1) A mouse pneumonia model was successfully established by using a nasal drip method. BALB/C mice with a body weight of 18-24 g were selected, and then anesthetized with ether on day 0, day 1 and day 2, respectively, prepared Streptococcus pneumoniae bacteria solution, adenovirus concentrated solution, Mycoplasma pneumoniae, Chlamydia pneumoniae, protozoa and pneumonia fungi were slowly dropped into the nasal cavity of the mice, so that the bacteria solutions entered the trachea and bronchi, and the bacteria solutions were prevented from flowing into the esophagus during the operation to avoid inactivation of the bacteria solutions, so that the mouse pneumonia model was established. After the model was successfully established, the recombinant fused polypeptides according to the present invention were administered.

Mycoplasma pneumoniae = experiment: Mouse pneumonia model, mycoplasma pneumonia; format: in vivo; settings: BALB/C mouse pneumonia model, nasal drip; average ± standard deviation
Excerpt: as §1

pneumonia fungi = experiment: Mouse pneumonia model, fungal pneumonia; format: in vivo; settings: BALB/C mouse pneumonia model, nasal drip; average ± standard deviation
Excerpt: as §1

Streptococcus pneumoniae = experiment: Mouse pneumonia model, bacterial pneumonia; format: in vivo; settings: BALB/C mouse pneumonia model, nasal drip; average ± standard deviation
Excerpt: as §1

protozoa = experiment: Mouse pneumonia model, protozoal pneumonia; format: in vivo; settings: BALB/C mouse pneumonia model, nasal drip; average ± standard deviation
Excerpt: as §1

adenovirus = experiment: Mouse pneumonia model, viral pneumonia; format: in vivo; settings: BALB/C mouse pneumonia model, nasal drip; average ± standard deviation
Excerpt: as §1

Chlamydia pneumoniae = experiment: Mouse pneumonia model, chlamydia pneumonia; format: in vivo; settings: BALB/C mouse pneumonia model, nasal drip; average ± standard deviation
Excerpt: as §1

[3] = system: mice with bleomycin-induced skin fibrosis; experiment: Bleomycin-induced skin fibrosis model; format: in vivo, C57/BL black mice; settings: C57/BL mice, bleomycin 10 μg/mL s.c. daily for 28 days, 10 mg/kg s.c. once every five days, 6 times, FIG. 6
Method: Bleomycin (10 μg/mL) was injected subcutaneously every day for 28 days to form skin fibrosis. During the modeling period, the administration groups were given drugs for treatment. After modeling, the mice were killed on the next day, and the skin tissue of the mouse back was taken to detect the content of HYP in the skin tissue. [table]

[4] = system: mice with myocardial fibrosis; experiment: Isoprenaline-induced myocardial fibrosis animal model; format: in vivo; settings: BALB/c mice, isoprenaline 5 mg/kg s.c. daily for 7 days, 12 mg/kg s.c. (Table 5), after the 8th day, FIG. 5
Method: In the model group, the experimental mice were injected with isoprenaline (ISO) (5 mg/kg) subcutaneously on the back of the mice every day for 7 consecutive days, and the mice were injected with normal saline subcutaneously (200 μL/mouse) every day. In the blank group, normal saline was injected subcutaneously (200 μL/mouse) every day. […] After the 8th day, blood was taken and was centrifuged, the supernatant was taken, and the content of TGF-β1 in serum was detected.

[5] = system: SD rats with renal fibrosis; experiment: Renal fibrosis animal model (ureter ligation); format: in vivo; settings: 6 mg/kg s.c. once every five days, after 15 days
Method: A renal fibrosis animal model was established. SD rats were anesthetized with 4% chloral hydrate, injected with 1 mL/100 g intraperitoneally, fixed to an operation board, and sterilized in an operation area for further use. […] Muscular layers and abdominal walls were sewed layer by layer, the suture was disinfected with alcohol. After SD rats woke up, the rats were put into a cage for feeding. In the blank group, ureter was not ligated, and other steps were the same.
Then, the animals fell into a blank group, a model group, and recombinant fused polypeptide administration groups, and the administration was started on the second day after the operation, and was performed for 15 days. After administration for 15 days, blood was taken and supernatant was taken to detect the content of TGF-β1 in serum.

[6] = listed as recombinant fused polypeptide I

Molecule	Survival rate (%) [1] [%]	Inhibitory effect, Pneumonia caused by pulmonary infections (pulmonary infections)	Inhibitory effect, Mycoplasma pneumonia (Mycoplasma pneumoniae)	Inhibitory effect, Fungal pneumonia (pneumonia fungi)	Inhibitory effect, Bacterial pneumonia (Streptococcus pneumoniae)	Inhibitory effect, Protozoal pneumonia (protozoa)	Inhibitory effect, Viral pneumonia (adenovirus)	Inhibitory effect, Chlamydia pneumonia (Chlamydia pneumoniae)	also measured
COC(=O)c1ccc2c(c1)NC(=O)/C2=C(\Nc1ccc(N(C)C(=O)CN2CCN(C)CC2)cc1)c1ccccc1 [Nintedanib, nintedanib, reference compound]	85.7	–	–	–	–	–	–	–	content of TGF-β1 in serum, difference from the model group ([1]; bleomycin pulmonary fibrosis, after 15 days, FIG. 2): highly significantly different from the model group (**P<0.01); content of HYP in liver tissue, difference from the model group ([2]; FIG. 3): highly significantly different from the model group (***P<0.001)
Penicillin [reference compound]	–	45.78 ± 3.65	43.21 ± 4.56	38.89 ± 2.24	39.21 ± 5.35	45.62 ± 5.43	50.07 ± 5.12	39.13 ± 5.23	–
PRCWRGEGGGGIVRRADRAAVPGGGGRGDGGGGSGGGGSGGGGSSDKPGGGGTSLDASIIWAMMQNGGGGLSKL (protein, Recombinant fused polypeptide X-linker1-Y expressed in 293 cells) PRCWRGEGGGGIVRRADRAAVPGGGGRGDGGGGSGGGGSGGGGSSDKPGGGGTSLDASIIWAMMQNGGGGLSKL	85.7	52.47 ± 4.28	38.47 ± 4.35	49.68 ± 5.74	38.43 ± 8.25	54.26 ± 5.32	54.68 ± 5.23	39.26 ± 4.66	Inhibitory effect, Pneumonia caused by pulmonary infections (pulmonary infections; [6]): inhibitory effect; content of HYP in skin tissue, difference from the model group ([3]; listed as recombinant fused polypeptide 1, 10 mg/kg): highly significantly different from the model group (**P<0.01); content of HYP in skin tissue, difference from the model group ([3]; listed as recombinant fused polypeptide I, 10 mg/kg): can lower the hydroxyproline content; Survival rate (%) ([1]; listed as fused polypeptide 1): equivalent to that of the positive drug group; hydroxyproline (HYP) content in lung tissue ([1]; bleomycin pulmonary fibrosis, 10 mg/kg s.c. once every five days, after 15 days, FIG. 1): can lower the hydroxyproline content; content of TGF-β1 in serum, difference from the model group ([1]; bleomycin pulmonary fibrosis, after 15 days, FIG. 2, listed as fused polypeptide 1): highly significantly different from the model group (**P<0.01); content of TGF-β1 in serum, difference from the model group ([1]; bleomycin pulmonary fibrosis, after 15 days, FIG. 2, listed as recombinant fused polypeptide I): can lower the TGF-β1 content; content of TGF-β1 in serum, difference from the model group ([4]; listed as recombinant fused polypeptide 1): significantly different from the model group (**P<0.01); content of TGF-β1 in serum, difference from the model group [4, 6]: can lower the TGF-β1 content; content of TGF-β1 in serum, difference from the model group ([5]; FIG. 4, listed as recombinant fused polypeptide 1, 6 mg/kg): highly significantly different from the model group (***P<0.001); content of TGF-β1 in serum, difference from the model group ([5]; FIG. 4, listed as recombinant fused polypeptide I, 6 mg/kg): can lower the TGF-β1 content; content of HYP in liver tissue, difference from the model group ([2]; FIG. 3, listed as Recombinant fused polypeptide 1): highly significantly different from the model group (***P<0.001); content of HYP in liver tissue, difference from the model group ([2]; FIG. 3, listed as recombinant fused polypeptide I): can lower the HYP content
